Experimental findings from publication PMC12102759 are described below.

The labels stand for the following.
B1: RNF115 peptide 67-82 (E3 ubiquitin-protein ligase RNF115), 16-mer library wild type / MDM2 SWIB (MDM2 SWIB/MDM2 domain, residues 17-125) (parent)
chain 1: TTTHFAELWGHLDHTM
chain 2: SQIPASEQETLVRPKPLLLKLLKSVGAQKDTYTMKEVLFYLGQYIMTKRLYDEKQQHIVYCSNDLLGDLFGVPSFSVKEHRKIYTMIYRNLVVVNQQESSDSGTSVSEN
B2: MXI1 peptide 6-21 (Max-interacting protein 1), 16-mer library wild type / SIN3A PAH2 (SIN3A PAH domain, residues 295-383) (parent)
chain 1: MINVQRLLEAAEFLER
chain 2: SLQNNQPVEFNHAINYVNKIKNRFQGQPDIYKAFLEILHTYQKEQRNAKEAGGNYTPALTEQEVYAQVARLFKNQEDLLSEFGQFLPDA
B3: PIP5K1C peptide 640-655 (Phosphatidylinositol 4-phosphate 5-kinase type-1 gamma), 16-mer library wild type / TLN1 PTB (TLN1 Phosphotyrosine-binding (PTB) domain, residues 309-401) (parent)
chain 1: FPTDERSWVYSPLHYS
chain 2: GVSFFLVKEKMKGKNKLVPRLLGITKECVMRVDEKTKEVIQEWNLTNIKRWAASPKSFTLDFGDYQDGYYSVQTTEGEQIAQLIAGYIDIILK
B4: ATXN2 peptide 911-926 (Ataxin-2), 16-mer library wild type / PABPC1 PABC (PABPC1 PABC domain, residues 544-623) (parent)
chain 1: KSTLNPNAKEFNPRSF
chain 2: PLTASMLASAPPQEQKQMLGERLFPLIQAMHPTLAGKITGMLLEIDNSELLHMLESPESLRSKVDEAVAVLQAHQAKEAA

The variants in the first test derive from B1. Description: proteomic peptide phage display deep mutational scan (ProP-PD DMS): M13 P8 16-mer library selected against immobilised GST-tagged bait for four days (rounds), NGS of the eluted pools per day and pseudo-replica. To be noted: with MDM2 SWIB (MDM2 SWIB/MDM2 domain, residues 17-125); bait immobilised on MaxiSorp plates (10 µg), library pre-cleared on GST, 2 h binding at 4 °C, five washes; one round per day, days 1-4; value from days 2 and 3; keep out of graded; scale: average fractional NGS count over selection days 2 and 3.
Consider chain 1 E7W, for which the screen value was determined as 5.37e-05.
With chain 1 E7S, the screen value is 0.
On the same count and under the same terms, the same measure for chain 1 E7Y: 0; for chain 1 E7G: 0; for chain 1 E7L: 7.08e-05.
The same measure, in the same setting: in the case of chain 1 H4W it was 2.47e-05; in that of chain 1 H4R, 1.9e-05; in that of chain 1 M16R, 0.000117.
Same read-out and setting: the same measure for chain 1 M16K: 0; for chain 1 M16G: 4.72e-05.
Take chain 1 M16H: the screen value was found to be 4.26e-05.
As to chain 1 M16S, the screen value is 0.000115.
Still for that read-out and setting: the same measure for chain 1 A6P: 3.8e-05; for chain 1 A6T: 0.00014; for chain 1 A6R: 0.
On the same count and under the same terms, in the case of chain 1 A6N it was 0.000134; in that of chain 1 A6Y, 0.000156; in that of chain 1 A6F, 0.000296.
The same measure, in the same setting: the same measure for chain 1 T15K: 2.45e-05.
With chain 1 T15R, the screen value turned out to be 5.55e-05.
Still for that read-out and setting: the same measure for chain 1 T15P: 7.64e-05; for chain 1 T15E: 4.41e-05; for chain 1 T15N: 4.79e-05.
Take chain 1 L8E: the screen value worked out at 4.72e-05.
Consider chain 1 L8P, for which the screen value was found to be 1.29e-05.
On the same count and under the same terms, the same measure for chain 1 L8S: 0; for chain 1 L8N: 0; for chain 1 L8Q: 0.
Still for that read-out and setting: in the case of chain 1 L8A it was 0; in that of chain 1 T3N, 6.02e-05.
Same read-out and setting: the same measure for chain 1 W9K: 4.89e-05; for chain 1 W9T: 7.05e-05; for chain 1 W9G: 0.000116.
On to chain 1 W9Y, for which the screen value was 0.
Still for that read-out and setting: the same measure for chain 1 W9A: 0; for chain 1 W9D: 0.
Take chain 1 W9L: the screen value came out at 0.
Still for that read-out and setting: the same measure for chain 1 W9N: 0; for chain 1 W9Q: 0; for chain 1 W9P: 3.98e-05.
As for chain 1 W9H, the screen value was found to be 0.
Still for that read-out and setting: the same measure for chain 1 D13K: 0.
For chain 1 H14D, the screen value came to 2.82e-05.
On to chain 1 H14K, for which the screen value worked out at 0.000119.
For the variant chain 1 T2W, the screen value came out at 2.98e-05.
Same read-out and setting: in the case of chain 1 T2F it was 4.31e-05.
Still for that read-out and setting: in the case of chain 1 T2N it was 7.17e-05.
Still for that read-out and setting: the same measure for chain 1 F5A: 0; for chain 1 F5D: 0.
Turning to chain 1 F5K, the screen value was 0.
Consider chain 1 F5R, for which the screen value is 0.
For chain 1 F5N, the screen value was 0.
As for chain 1 G10R, the screen value is 2.89e-05.
On the same count and under the same terms, in the case of chain 1 G10E it was 8.15e-05.
The same measure, in the same setting: in the case of chain 1 G10K it was 0.
chain 1 G10H: the screen value worked out at 5.57e-05.
The same measure, in the same setting: in the case of chain 1 G10V it was 7.22e-05; in that of chain 1 G10F, 3.49e-05.
Still for that read-out and setting: in the case of chain 1 L12S it was 0; in that of chain 1 L12K, 0.
Take chain 1 L12T: the screen value came to 0.
As for chain 1 L12V, the screen value was 1.9e-05.
chain 1 L12F: the screen value was 0.

A further test covers variants of B2. The test is described as above. Conditions: with SIN3A PAH2 (SIN3A PAH domain, residues 295-383); bait immobilised on MaxiSorp plates (10 µg), library pre-cleared on GST, 2 h binding at 4 °C, five washes; one round per day, days 1-4; value from days 2 and 3; keep out of graded; scale: average fractional NGS count over selection days 2 and 3.
As for chain 1 A10M, the screen value came out at 1.91e-05.
Still for that read-out and setting: in the case of chain 1 A10I it was 4.73e-05; in that of chain 1 A10R, 0.
Same read-out and setting: in the case of chain 1 A10H it was 2.36e-05.
For chain 1 A10Q, the screen value amounted to 0.
For chain 1 I2G, the screen value is 6.22e-05.
Still for that read-out and setting: the same measure for chain 1 I2K: 0; for chain 1 L8N: 7.15e-05; for chain 1 L8F: 7.63e-05.
Still for that read-out and setting: the same measure for chain 1 L8R: 4.34e-05.
As to chain 1 L8A, the screen value turned out to be 2.84e-05.
On the same count and under the same terms, in the case of chain 1 L8W it was 6.64e-05.
In the case of chain 1 M1A, the screen value came out at 6.67e-05.
The same measure, in the same setting: the same measure for chain 1 M1H: 8.47e-05; for chain 1 M1T: 0; for chain 1 M1L: 3.46e-05.
As for chain 1 Q5P, the screen value amounted to 3.48e-05.
Still for that read-out and setting: in the case of chain 1 Q5W it was 6.78e-05.
On to chain 1 Q5D, for which the screen value is 0.
For chain 1 R6T, the screen value was 0.
On the same count and under the same terms, the same measure for chain 1 R6M: 6.6e-05.
The same measure, in the same setting: the same measure for chain 1 R6D: 5.76e-05.
On the same count and under the same terms, the same measure for chain 1 R6F: 4.27e-05; for chain 1 F13P: 4.79e-05; for chain 1 F13I: 1.91e-05.
Take chain 1 A11T: the screen value amounted to 9.14e-05.
Still for that read-out and setting: in the case of chain 1 A11V it was 2.84e-05; in that of chain 1 A11D, 0.000105.
For the variant chain 1 A11S, the screen value was 8.92e-05.
Same read-out and setting: the same measure for chain 1 L14Q: 7.31e-05; for chain 1 L14T: 5.17e-05.
With chain 1 L14F, the screen value was determined as 3.78e-05.
Same read-out and setting: in the case of chain 1 L14A it was 0; in that of chain 1 L7R, 0; in that of chain 1 L7V, 6.69e-05.
As for chain 1 L7M, the screen value worked out at 0.
chain 1 N3R: the screen value was 4.48e-05.
Regarding chain 1 N3Q, the screen value came to 5.31e-05.
Still for that read-out and setting: the same measure for chain 1 N3A: 0; for chain 1 V4P: 1.91e-05.
The same measure, in the same setting: the same measure for chain 1 V4R: 0.
chain 1 V4G: the screen value amounted to 6.66e-05.
On to chain 1 V4S, for which the screen value is 0.
Same read-out and setting: in the case of chain 1 V4E it was 0; in that of chain 1 V4M, 7.16e-05.

Variants of B3 are the subject of another test. Described as above. To be noted: with TLN1 PTB (TLN1 Phosphotyrosine-binding (PTB) domain, residues 309-401); bait immobilised on MaxiSorp plates (10 µg), library pre-cleared on GST, 2 h binding at 4 °C, five washes; one round per day, days 1-4; value from days 2 and 3; keep out of graded; scale: average fractional NGS count over selection days 2 and 3.
As for chain 1 S7Y, the screen value was found to be 0.000136.
Same read-out and setting: in the case of chain 1 R6M it was 0.00014; in that of chain 1 R6K, 9.21e-05.
The same measure, in the same setting: the same measure for chain 1 Y15T: 0.000245; for chain 1 V9T: 0.000147; for chain 1 V9L: 0.000573.
The same measure, in the same setting: the same measure for chain 1 S16T: 0.000518.
As to chain 1 S16F, the screen value was determined as 0.000114.
On the same count and under the same terms, in the case of chain 1 D4T it was 0.000121.
Consider chain 1 D4R, for which the screen value stood at 0.000156.
Same read-out and setting: in the case of chain 1 E5W it was 0.000904.
For the variant chain 1 H14R, the screen value worked out at 0.000159.
Still for that read-out and setting: the same measure for chain 1 H14N: 3.05e-05; for chain 1 H14T: 0.00119.
chain 1 S11D: the screen value was 0.

Variants of B4 are the subject of another test. The test is described as above. To be noted: with PABPC1 PABC (PABPC1 PABC domain, residues 544-623); bait immobilised on MaxiSorp plates (10 µg), library pre-cleared on GST, 2 h binding at 4 °C, five washes; one round per day, days 1-4; value from days 2 and 3; scale: average fractional NGS count over selection days 2 and 3.
With chain 1 P13W, the screen value was 0.000637.
Same read-out and setting: the same measure for chain 1 P13H: 0.
On to chain 1 P13E, for which the screen value worked out at 0.000246.
For chain 1 P13M, the screen value came out at 0.
Take chain 1 P13N: the screen value worked out at 0.000178.
The same measure, in the same setting: the same measure for chain 1 P13Y: 0.000164; for chain 1 P13F: 0.00012; for chain 1 P13A: 0.000212.
In the case of chain 1 P13T, the screen value is 1.02e-05.
Same read-out and setting: in the case of chain 1 P13I it was 0.000517; in that of chain 1 P13G, 0.00243.
chain 1 P13L: the screen value was found to be 0.00026.
The same measure, in the same setting: in the case of chain 1 P13Q it was 0.00338; in that of chain 1 P13V, 0.031; in that of chain 1 P13D, 1.92e-05.
The same measure, in the same setting: the same measure for chain 1 E10V: 0.000349.
The same measure, in the same setting: the same measure for chain 1 E10H: 0.000717; for chain 1 E10T: 0.000321; for chain 1 E10S: 0.
On to chain 1 E10D, for which the screen value was 0.
The same measure, in the same setting: in the case of chain 1 E10Q it was 0; in that of chain 1 E10R, 0.
On the same count and under the same terms, in the case of chain 1 K9L it was 0.00284.
In the case of chain 1 K9M, the screen value is 0.0042.
As to chain 1 K9E, the screen value stood at 0.00113.
Same read-out and setting: in the case of chain 1 K9Y it was 0.000884; in that of chain 1 K9I, 0.0153; in that of chain 1 K9P, 0.000159.
Turning to chain 1 K9Q, the screen value is 0.001.
In the case of chain 1 K9G, the screen value turned out to be 0.000242.
For the variant chain 1 K9S, the screen value is 0.0022.
The same measure, in the same setting: in the case of chain 1 K9D it was 0.000277.
Regarding chain 1 K9N, the screen value came to 0.00453.
With chain 1 K9F, the screen value came out at 0.000915.
For chain 1 K9R, the screen value came out at 0.00121.
As for chain 1 K9A, the screen value was 0.000101.
In the case of chain 1 K9T, the screen value is 0.000868.
With chain 1 K9H, the screen value stood at 0.00168.
On the same count and under the same terms, the same measure for chain 1 N7D: 0.000764; for chain 1 N7E: 0.000331.
The same measure, in the same setting: in the case of chain 1 N7S it was 0.000455.
As to chain 1 N7M, the screen value came to 0.000289.
On to chain 1 N7I, for which the screen value came out at 0.00577.
chain 1 N7F: the screen value amounted to 0.00073.
